# Laboratory results from publication doi:10.1101/2022.12.08.519103 (bioRxiv, 2022).
# Square brackets hold non-standard residues; d marks the D form. Ends that are not written are not given here. pS = N[C@@H](COP(=O)(O)O)C(=O)O
# T1: AviTag-His6-MBP-TEVsite-14-3-3ε (human, UniProt P62258 1-255)
# T1 sequence (looked up): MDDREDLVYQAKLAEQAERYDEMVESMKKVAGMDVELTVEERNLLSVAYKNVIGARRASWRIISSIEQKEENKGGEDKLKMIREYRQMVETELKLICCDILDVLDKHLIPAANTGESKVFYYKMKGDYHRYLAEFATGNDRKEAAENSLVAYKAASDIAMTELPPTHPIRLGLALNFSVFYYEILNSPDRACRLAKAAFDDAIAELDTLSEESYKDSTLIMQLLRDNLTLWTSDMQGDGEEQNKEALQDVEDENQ
# T2: AviTag-His6-MBP-TEVsite-14-3-3γ (human, UniProt P61981 1-247)
# T2 sequence (looked up): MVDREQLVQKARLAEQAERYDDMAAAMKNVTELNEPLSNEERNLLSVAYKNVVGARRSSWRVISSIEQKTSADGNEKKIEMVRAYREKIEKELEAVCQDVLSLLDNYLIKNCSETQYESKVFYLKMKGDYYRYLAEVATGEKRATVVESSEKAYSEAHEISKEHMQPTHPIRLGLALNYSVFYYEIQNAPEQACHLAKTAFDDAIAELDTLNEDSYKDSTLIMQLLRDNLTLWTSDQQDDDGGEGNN
# T3: AviTag-His6-MBP-TEVsite-14-3-3σ (human, UniProt P31947 1-248)
# T3 sequence (looked up): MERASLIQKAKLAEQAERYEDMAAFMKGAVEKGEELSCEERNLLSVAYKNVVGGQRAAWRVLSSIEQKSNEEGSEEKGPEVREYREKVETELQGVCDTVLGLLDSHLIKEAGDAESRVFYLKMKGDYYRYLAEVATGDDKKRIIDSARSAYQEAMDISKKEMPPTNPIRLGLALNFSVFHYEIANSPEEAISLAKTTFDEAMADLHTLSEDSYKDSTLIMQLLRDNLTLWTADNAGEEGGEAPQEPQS
# B1: IRS2 pSer384 phosphopeptide (peptide, UniProt Q9Y4H2 379-388, looked up)
# peptide: GARPV[pS]VAGS
# modifications: also: phosphoserine at 384 (S6 or S10)
# B2: YAP1 pSer276 phosphopeptide (peptide, UniProt P46937 271-280, looked up)
# peptide: QRISQ[pS]APVK
# modifications: also: phosphoserine at 276 (S4 or S6)
# B3: phosphopeptide centered on pSer75 from CDK17 (peptide, UniProt Q00537 70-79, looked up)
# peptide: LRRPH[pS]VIGG
# Experiments:
# Assay in all cases: Holdup Multiplex
# [1] = target: T1, AviTag-His6-MBP-TEVsite-14-3-3ε
# [2] = target: T2, AviTag-His6-MBP-TEVsite-14-3-3γ
# [3] = target: T3, AviTag-His6-MBP-TEVsite-14-3-3σ
binder,measurement,setting,value
B1,Kd,[1],~900 µM
B2,Kd,[2],0.7 µM
B3,Kd ratio between γ and σ,[3],60 fold
